Laboratory results as given in patent US9365599B2, “N3S1 chelator-folate derivatives, preparation method thereof and composition for diagnosis or treatment of cancer containing the same as an active ingredient” (KOREA ATOMIC ENERGY RESEARCH INSTITUTE, priority 2012, dated 2016).

What was measured:
[1] = system: FR-positive KB tumor cells; assay: Time-dependent cell uptake (membrane bound and internalized fraction) in FR-positive KB cells; format: cell-based, human; conditions: 37° C., 10-180 min
Procedure: FR-positive KB tumor cells (human oral epidermoid carcinoma) which overexpress FR were grown in T-flask until 80%-90% confluence at 37° C. and 5% CO2 with folid-acid free (deficient) RPMI 1640 medium (FFRPMI) containing 10% heat-inactivated fetal bovine serum (FBS). […] Cells were rinsed twice with ice-cold PBS and pre-incubated with 850 μl of fresh FFRPMI without FBS at 37° C. for 30 min. […] After incubation, the well plates were washed twice with ice-cold PBS.
After that, the cells were washed with an acid wash buffer (50 mM glysine-HCL buffer, pH 2.4), to remove membrane bound radioligand, and the supernatant was collected to measure the membrane bound fraction of radioactivity. Cells were lysed with 1N NaOH, transferred and measured the internalised fraction of radioactivity with γ-counter. Counted radioactivity in membrane bound fraction and internalized fraction could be ascribed to the sum of cell uptake. The cell uptake data was expressed as % cell uptake (cell uptake/total added activity). Each data represents a result of the […] of triplicate wells. The affinity of PKCK-fol was determined using competitive binding assay. ^99mTc-PKC-fol was used as radioligand in this assay. Cells were harvested with typsin and washed with PBS buffer, and 8×10^5 cells were seeded in 12-well plates. […] After that, the cells were collected to measure the radioactivity with γ-counter. […]

in vivo = assay: in vivo; parameters: species or system mice; conditions: female, nude, mouse, iv, 370 kBq, total radioactivity
Procedure: (§1) The stock solution of the ^99mTc-labeled PKCK-fol-OH used in the animal studies was prepared for 10^−8 mol/ml with an activity of 370 MBq. Solutions for injection were prepared by the dilution of the stock solution to obtain a desired volumetric activity of 3.7 MBq/ml. The biodistribution experiments for the ^99mTc-labeled PKCK-fol-OH were performed with KB-bearing female nude mice (provided by OrientBio, Republic of Korea). […] After tumor was allowed to grow for 2-3 weeks, the mice were administered 370 kBq (10 uCi)/100 μl intravenously. At 30 min, 1 hr, 3 hr and 24 hr, the animals were sacrificed.
(§2) Table 1 below lists biodistribution results measured at 30 min, 1 hr, 3 hr and 24 hr after injection.

KB tumor xenograft = assay: in vivo; parameters: species or system mice; conditions: mouse, iv
Procedure: as §1, §2

folate-receptor (FR) = target: T1, folate-receptor (FR) (Homo sapiens, UniProt P15328); assay: Competitive binding assay on FR-positive KB cells with 99mTc-labeled folate radioligand
T1 construct: FR-positive KB tumor cells (human oral epidermoid carcinoma) which overexpress FR; endogenous in cells; host or cells: KB cells (human oral epidermoid carcinoma)
T1 sequence (P15328 25-234): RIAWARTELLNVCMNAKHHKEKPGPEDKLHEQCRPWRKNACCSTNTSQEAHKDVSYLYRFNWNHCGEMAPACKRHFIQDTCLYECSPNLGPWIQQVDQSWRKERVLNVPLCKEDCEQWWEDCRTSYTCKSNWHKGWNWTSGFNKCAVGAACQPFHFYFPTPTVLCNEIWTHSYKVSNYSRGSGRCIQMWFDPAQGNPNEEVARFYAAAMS
Procedure: After that, the cells were washed with an acid wash buffer (50 mM glysine-HCL buffer, pH 2.4), to remove membrane bound radioligand, and the supernatant was collected to measure the membrane bound fraction of radioactivity. Cells were lysed with 1N NaOH, transferred and measured the internalised fraction of radioactivity with γ-counter. Counted radioactivity in membrane bound fraction and internalized fraction could be ascribed to the sum of cell uptake. The cell uptake data was expressed as % cell uptake (cell uptake/total added activity). […] Cells were harvested with typsin and washed with PBS buffer, and 8×10^5 cells were seeded in 12-well plates. […] After that, the cells were collected to measure the radioactivity with γ-counter.

With `NCCCC[C@H](NC(=O)[C@@H]1CCCN1)C(=O)N[C@@H](CS)C(=O)NCCCC[C@H](NC(=O)CC[C@H](NC(=O)c1ccc(NCc2cnc3nc(N)[nH]c(=O)c3n2)cc1)C(=O)O)C(=O)O` (99mTc complex, metal not drawn) [Example 10] the “cell affinity and internalization rate” value [1] was “increased time dependently”, the tissue uptake at 0.5 h (in vivo; Blood uptake) was 0.64 ± 0.26 %ID/g and the tissue uptake at 1 h (in vivo; Blood uptake) was 0.36 ± 0.06 %ID/g. It also gave a tissue uptake at 3 h (in vivo; Blood uptake) of 0.18 ± 0.05 %ID/g, a tissue uptake at 24 h (in vivo; Blood uptake) of 0.06 ± 0.02 %ID/g and a tissue uptake at 0.5 h (in vivo; Heart uptake) of 2.25 ± 0.47 %ID/g. The tissue uptake at 1 h (in vivo; Heart uptake) was 1.73 ± 0.27 %ID/g, the tissue uptake at 3 h (in vivo; Heart uptake) was 1.03 ± 0.32 %ID/g and the tissue uptake at 24 h (in vivo; Heart uptake) was 0.1 ± 0.06 %ID/g. The tissue uptake at 0.5 h (in vivo; Kidney uptake) was 76.5 ± 5.04 %ID/g, the tissue uptake at 1 h (in vivo; Kidney uptake) was 77.2 ± 5.43 %ID/g and the tissue uptake at 3 h (in vivo; Kidney uptake) was 41.5 ± 12.1 %ID/g. The tissue uptake at 24 h (in vivo; Kidney uptake) was 7.49 ± 1.9 %ID/g, the tissue uptake at 0.5 h (in vivo; Lg Int uptake) was 2.43 ± 1.38 %ID/g and the tissue uptake at 1 h (in vivo; Lg Int uptake) was 3.43 ± 0.73 %ID/g. It also gave a tissue uptake at 3 h (in vivo; Lg Int uptake) of 1.48 ± 0.64 %ID/g, a tissue uptake at 24 h (in vivo; Lg Int uptake) of 1.38 ± 0.86 %ID/g and a tissue uptake at 0.5 h (in vivo; Liver uptake) of 7.21 ± 1.58 %ID/g. For the same compound, the tissue uptake at 1 h (in vivo; Liver uptake) was 5.42 ± 1.85 %ID/g, the tissue uptake at 3 h (in vivo; Liver uptake) was 2.83 ± 0.6 %ID/g and the tissue uptake at 24 h (in vivo; Liver uptake) was 1.09 ± 0.07 %ID/g. It also gave a tissue uptake at 0.5 h (in vivo; Lung uptake) of 1.7 ± 0.35 %ID/g, a tissue uptake at 1 h (in vivo; Lung uptake) of 1.45 ± 0.33 %ID/g and a tissue uptake at 3 h (in vivo; Lung uptake) of 0.63 ± 0.26 %ID/g. The tissue uptake at 24 h (in vivo; Lung uptake) was 0.12 ± 0.06 %ID/g, the tissue uptake at 0.5 h (in vivo; Sm Int uptake) was 0.93 ± 0.54 %ID/g and the tissue uptake at 1 h (in vivo; Sm Int uptake) was 0.43 ± 0.05 %ID/g. It also gave a tissue uptake at 3 h (in vivo; Sm Int uptake) of 0.27 ± 0.12 %ID/g, a tissue uptake at 24 h (in vivo; Sm Int uptake) of 0.1 ± 0.05 %ID/g and a tissue uptake at 0.5 h (in vivo; Spleen uptake) of 0.47 ± 0.13 %ID/g. The tissue uptake at 1 h (in vivo; Spleen uptake) was 0.36 ± 0.03 %ID/g, the tissue uptake at 3 h (in vivo; Spleen uptake) was 0.3 ± 0.07 %ID/g and the tissue uptake at 24 h (in vivo; Spleen uptake) was 0.1 ± 0.03 %ID/g. For the same compound, the tissue uptake at 0.5 h (in vivo; Stomach uptake) was 1.92 ± 0.26 %ID/g, the tissue uptake at 1 h (in vivo; Stomach uptake) was 1.2 ± 0.05 %ID/g and the tissue uptake at 3 h (in vivo; Stomach uptake) was 0.55 ± 0.16 %ID/g. It also gave a tissue uptake at 24 h (in vivo; Stomach uptake) of 0.13 ± 0.04 %ID/g, a tissue uptake at 0.5 h (in vivo; Tumor uptake) of 2.6 ± 0.53 %ID/g and a tissue uptake at 1 h (in vivo; Tumor uptake) of 2.96 ± 0.51 %ID/g. The tissue uptake at 3 h (in vivo; Tumor uptake) was 2.24 ± 0.27 %ID/g, the tissue uptake at 24 h (in vivo; Tumor uptake) was 0.91 ± 0.28 %ID/g and the tissue to tissue ratio at 0.5 h (in vivo; Tumor/blood ratio) was 4.38 ± 0.92. It also gave a tissue to tissue ratio at 1 h (in vivo; Tumor/blood ratio) of 8.35 ± 1.12, a tissue to tissue ratio at 3 h (in vivo; Tumor/blood ratio) of 13.2 ± 2.78 and a tissue to tissue ratio at 24 h (in vivo; Tumor/blood ratio) of 15.2 ± 4.36. For the same compound, the tissue to tissue ratio at 0.5 h (in vivo; Tumor/kidney ratio) was 0.03 ± 0.01, the tissue to tissue ratio at 1 h (in vivo; Tumor/kidney ratio) was 0.04 ± 0.01 and the tissue to tissue ratio at 3 h (in vivo; Tumor/kidney ratio) was 0.06 ± 0.01. For the same compound, the tissue to tissue ratio at 24 h (in vivo; Tumor/kidney ratio) was 0.12 ± 0.02, the tissue to tissue ratio at 0.5 h (in vivo; Tumor/liver ratio) was 0.38 ± 0.14 and the tissue to tissue ratio at 1 h (in vivo; Tumor/liver ratio) was 0.58 ± 0.17. The tissue to tissue ratio at 3 h (in vivo; Tumor/liver ratio) was 0.82 ± 0.2, the tissue to tissue ratio at 24 h (in vivo; Tumor/liver ratio) was 0.83 ± 0.24 and the “uptake in other organs (lung, heart, stomach and intestines)” value (KB tumor xenograft) was “kept at a low level”.
`NCCCCC(NC(=O)C1CCCN1)C(=O)NC(CS)C(=O)NCCCCC(NC(=O)CCC(NC(=O)c1ccc(NCC2=NC3C(=O)NC(N)=NC3N=C2)cc1)C(=O)O)C(=O)O` (stereo not shown) [Example 1, PKCK-Fol-OH] showed an IC50 (folate-receptor (FR)) of 160 nM.
